Residue numbers refer to the chain shown, from its start.
B1: ADI-15006 (antibody, V domains shown)
VH: EVQLVESGPGLVKPSGTLSLTCTVSGDSMSDYYWSWIRQSPGRGLEWLGYIYYDGSTNYNPSLKGRGTISIDTSKSQFSLTLSSVKAADTAVYYCARGKYYDRGGYYLFYLDYWGQGILVTVSS
VL: DIRLTQSPSSLSASVGDRVTITCRASQTIASYVNWYQQKPGKAPKLLIYAASSLQDGVPSRFSGSGSGTDFALTISSLQPEDFAIYFCQQSYSTPIFTFGPGTKVEIK
notes: IgG; also called Antibody Number 125
B2: ADI-15645 (antibody, V domains shown)
VH: EVQLLESGGGLVQPGGSLRLSCAASGFTFSSYAMSWVRQIPGKGLEWVSTINISGGSTYYADSVKGRFTISRDNSRDTVFLQMNGLRAEDTALYYCARGYHIDWFDFWGQGTLVTVSS
VL: DIVLTQTPSSVSASVGDRVTITCRASQDIGSWLAWYQQKPGKAPQFLIYAASQLQSGVPSRFSGSGSGTDFTLTISSLQPEDFATYYCQQAKSLPRTFGGGTKVDIK
notes: IgG
B3: ADI-15627 (antibody, V domains shown)
VH: EVQLVESGGGVVQPGRSLRLSCAASGFTFSDYAMHWVRQAPGKGLEWVAVIWYDGGNKYYADSAKGRFTISRDNSKNTLYLQMNSLRAEDTAVYYCAKDRGSIWNVGDGMDVWGQGTTVTVSS
VL: QPVLTQPPSVSVAPGQTARVTCGGNNIGAKSVHWYQQKPGQAPVLVVDDDTDRPSGIPERFSGSNSGNTATLTISRVEAGDEADYYCQVWDASIGPLYVFGTGTKLTVL
notes: IgG; also called Antibody Number 192
B4: ADI-15646 (antibody, V domains shown)
VH: EVQLLESGGGLIQPGGSLRLSCGASGFTVTGNYMHWVRQAPGKGLEWVSVIYAGSSTYYADSVRGRFTISRDKARNTLFLQMNRLRAEDTAVYYCARAGVVGEDRSGWYGPDYFHGLDVWGQGTTVTVSS
VL: ETTLTQSPGTLSLSPGERATLSCRASQSIRNNYLAWYQQKPGQPPRLLIYGESRRATGIPGRFSGSGSGTDFTLTISSLEPEDFAVYYCQQYGGSPYTFGQGTKVDIK
notes: IgG; also called Antibody Number 210
B5: ADI-15561 (antibody, V domains shown)
VH: QVQLVQSGAEVKKPGSSVKVSCKASGGTFSSYAINWVRQAPGQGLEWMGGIIPAFGTTIYAQRFQDRVTITADKSTSTAYMELRSLRSEDTAVYYCARSPPFWSDYSRGWFDPWGQGTLVTVSS
VL: ETTLTQSPSALSASVGDRVTITCRASQTISGYLNWYQQKPGKAPKLLIYAASSLQSGVPSRFSGSSAGTDFTLSISNLQPEDFATYYCQQSYTTPWTFGQGTKVEIK
notes: IgG; also called Antibody Number 132
B6: ADI-15660 (antibody, V domains shown)
VH: EVQLVQSGTEVKKPGESLKISCKASGYSSFPNWIGWVRQMPGKGLEYMGSIFPDDSNTRYSPSFRGLVAISADKSLRTAYLQWSSLKASDSAIYYCARGPFPHYFDSWGQGTLVTVSS
VL: NFMLTQPHSVSESPGKTVTISCTRSSGSIARNYVQWYQQRPGSSPTTVIYEDDQRPPGVPDRFSGSIDSSSNSASLTISGLQTEDEADYYCQSYDPTNQNVFGTGTKLTVL
notes: IgG
B7: ADI-15658 (antibody, V domains shown)
VH: EVQLVESGGGLVQPGRSLRLSCVTSGFGFDDYAMHWVRQAPGKGLEWVSGIGWNSGGIGYADSVKGRFSISRDNAKNSLYLQMNSLRPEDTAFYYCVKDGTPIAVAGYFEYWGQGTLVTVSS
VL: SYELTQPPSASGTPGQRVTISCSGGRSNIGNNYVYWYQQLPGTAPKLLIYRHDQRPSGVPDRFSGSKSGTSASLAINGLRSEDEADYFCAVWDDSLSCYVFGAGTKLTVL
notes: IgG
B8: ADI-15629 (antibody, V domains shown)
VH: EVQLVESGGGLVQPGGSLRLSCAASGFTFSDFAMSWVRQAPGKGLEWVSLIKSSDYAYYADSVRGRFTISRDNSKNTLYLRMNSLRADDTAVYYCAKDADFWSGDSYNGGYNFDSWGQGTLVTVSS
VL: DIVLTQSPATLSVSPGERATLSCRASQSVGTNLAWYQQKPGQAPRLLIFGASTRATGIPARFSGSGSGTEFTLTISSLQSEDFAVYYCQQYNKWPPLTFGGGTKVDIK
notes: IgG
B9: ADI-15667 (antibody, V domains shown)
VH: B8 VH with A33S, D55G, R81Q, D88E, V92I, D105A, S106A
VL: DIQMTQSPATLSVFPGDRATLSCRASQSVGSNLAWYQQKPGQAPRLLIFGASTRATGIPARFSGSGSGTEFTLTISSLQSEDFAVYYCQQYHNWPPLTFGGGTKVDIK
notes: IgG
B10: ADI-15659 (antibody, V domains shown)
VH: QVQLVQSGAEVKKPGSSVKVSCKASGGTFSTYGISWVRQAPGQGLEWMGRVIPMFGTATYAQKFQDRVTITADKATSTAYMELNSLRSDDTAVYYCARCPPFEGVRPPWFDPWGQGTLVTVSS
VL: SYELTQPPSVSVAPGRTAKITCGGYNIGNKRVHWYRQRPGQAPVLIVYDNADRPSGIPERFSGSNSGNTATLTISNVAAGDEADYHCQVWETSSDHPVFGGGTKLTVL
notes: IgG; also called Antibody Number 223
B11: ADI-15651 (antibody, V domains shown)
VH: EVQLVESGPALVKPTQTLTLTCTVSGGVERMSVSWVRQPPGKALEWLARIDWDDDKYYNTFLKTRLTISKGTSKNEVVLTMTNMDPEDTAIYYCARTNRYDKSGYYLYYLDYWGQGTLVTVSS
VL: DIQMTQSPSSLSASVGDKVTITCRASQTIASYVNWYQQHPGKAPKLLIYLASRLQSGAPSRFSGSGSGTDFTLTILNLQPEDFATYYCQQSYSSFFTFGPGTKVEIK
notes: IgG
B12: ADI-15641 (antibody, V domains shown)
VH: QVQLVESGGGVVQPGRSLRVSCAASGFDFSNYAMHWVRQAPGKGLEWVALISYDGNNKVYADSVKGRFTVSRDNSKNTLYLQMNSLRPEDTAVIYCAKDGYLAPDFWGQGTLVTVSS
VL: QSVLTQPASVSGSPGQSIIISCTGTSSDVGEYDYVSWYQHHPHKAPKLIIYEVSNRPSGVSNRFSGSKSGNTASLTISGLQAEDEADYYCSSYTSSSGQAFGTGTKVTVL
notes: IgG; also called Antibody Number 205
B13: ADI-15577 (antibody, V domains shown)
VH: QVQLVQSGAEVKKPGSSVKVSCKASGGTFGSYAISWVRQAPGQGLEWMGGTIPIFGTADHAQKFQGRVTITADKSTSTAYMELSSLRSEDTAVYYCARGVFRVGCSDTSCLKNYYGTDVWGQGTTVTVSS
VL: QSVLIQPASVSGSPGQSITVSCTGSSGDVGAYKYVSWYQQHPGRGPKLIIYDVSARPSGISDRFSGSKSGNTASLTISGLQAEDEADYYCSSYSSSSTLVVFGGGTKVTVL
notes: IgG
B14: ADI-15633 (antibody, V domains shown)
VH: QVQLVQSGAEVKKPGESLKISCKGSGYTFRMYWIGWARLLPGKGLEWIGIIYPGDSDTRYNPSLQGQVTMSVDKSINTAYLQWGSLKASDSAIYYCARLRLHPQSGMDVWGQGTLVTVSS
VL: NFMLTQPHSVSESPGKTVVISCTRSSGSIAGYYVQWYQHRPGSSPTTVIYEDDQRPSGVPDRFSGSVDSSSNSASLTISGLKTEDEADYYCQSYDNAIWVFGGGTKLTVL
notes: IgG
B15: ADI-15619 (antibody, V domains shown)
VH: QVQLVQSGAEAKKPGASVKVSCTASGYTFTNDINWVRQATGQGLEWMGWMNPNNGHTGYGQKFEDRVTLTRDSSRSTAYMELSSLRFEDTAVYYCVYNFWSDSSVSWGRGTLVTVSS
VL: QSVVTQPPSVSGAPGQSVAISCTGSSSNIGPAYDVHWYQQTPGAAPKLLIYGDSNRPSGVPDRFSTSKSGTSASLAITGLQAEDEADYYCQSFDSSLRGYVFGTGTKVTVL
notes: IgG
B16: ADI-15626 (antibody, V domains shown)
VH: EVQLVESGAEVKKPGSSVKVSCKASGGTFSSYEISWVRQAPGQGLEWMGGINPMFGAANYAQKFQDRVTIIADKSTGTVYMELSSLRSEDTALYYCARERYPSTDDYYRSGRYYGEWGQGTTVTVSS
VL: ETTLTQSPSTLSASVGDRVTITCRASQSIRSWLAWYQQKPGKAPKLLIYRASTSDSGVPSRFSGSGSGTEFTLTISSLQPDDFAIYYCQQYNSIPVTFGQGTKLEIK
notes: IgG
B17: ADI-15640 (antibody, V domains shown)
VH: QVQLVESGPALVKPTQTLTLTCAFSGFSLTTRGMSVSWIRQPPGKALEWLARIDWDDDKYYSTSLKTRLTISKDTSKNQVVLTMSNMDPVDTATYYCARASLYDSGGYYLFFFDYWGQGTLVTVSS
VL: DIVMTQSPSSLSASVGDRVTITCRASQSIGSYLNWYQQKPGKVPKLLIYAASNLQGGVPSRFRGSGSGTDFTLTISNLQPEDFASYYCQLSYSSLWTFGQGTKVEIK
notes: IgG; also called Antibody Number 204

Each binder was assayed against T1, postfusion RSV F ectodomain (F ΔFP), subtype A (respiratory syncytial virus subtype A, UniProt P03420 26-109; P03420 147-524) (assay: BLI, IgG on sensor).
T1 construct: extracellular domain; also called Postfusion subtype A
Procedure: (§1) IgG binding to DS-Cav1 and FA FP was determined by BLI measurements using a FortéBio Octet HTX instrument (Pall Life Sciences). […] Data was analyzed using the ForteBio Data Analysis Software 7. The data was fit to a 1:1 binding model to calculate an association and dissociation rate, and KD was calculated using the ratio kd/kₐ.

Binder | Kd
B1 | 0.243 nM
B2 | 0.367 nM
B3 | 0.158 nM
B4 | 0.318 nM
B5 | 0.591 nM
B6 | 0.098 nM
B7 | 0.18 nM
B8 | 0.228 nM
B9 | 0.231 nM
B10 | 1.13 nM
B11 | 0.23 nM
B12 | 0.161 nM
B13 | 0.779 nM
B14 | 0.104 nM
B15 | 1.76 nM
B16 | 0.546 nM
B17 | 0.169 nM

These binders were tested against T2, prefusion-stabilized RSV F ectodomain (DS-Cav1), subtype B (respiratory syncytial virus subtype B) (assay: BLI, IgG on sensor).
T2 construct: extracellular domain; also called Prefusion subtype B
Procedure: as §1

Binder | Kd
B1 | 4.2 nM
B2 | 4.6 nM
B3 | 1.61 nM
B4 | 2.62 nM
B5 | 8.62 nM
B6 | 0.89 nM
B7 | 1.81 nM
B8 | 0.36 nM
B9 | 0.333 nM
B10 | 11.1 nM
B11 | 2.08 nM
B12 | 0.136 nM
B13 | 4.66 nM
B14 | 0.896 nM
B15 | 6.91 nM
B16 | 3.39 nM
B17 | 1.49 nM

These binders were tested against T3, postfusion RSV F ectodomain, subtype B (respiratory syncytial virus subtype B) (assay: BLI, IgG on sensor).
T3 construct: extracellular domain; also called Postfusion subtype B
Procedure: as §1

Binder | Kd
B1 | 3.61 nM
B2 | 0.352 nM
B3 | 0.137 nM
B4 | 3.18 nM
B5 | 1.08 nM
B6 | 0.105 nM
B7 | 0.169 nM
B8 | 0.213 nM
B9 | 0.208 nM
B10 | 3.66 nM
B11 | 0.453 nM
B12 | 0.136 nM
B13 | 0.679 nM
B14 | 0.111 nM
B15 | 2.21 nM
B16 | 0.653 nM
B17 | 0.196 nM

These binders were tested against RSV F protein of subtype A strain A2, on virus (respiratory syncytial virus subtype A …, UniProt P03420 26-574) (assay: cell-based or functional assay).

Binder | Neut IC50 (ug/ml) subtype A
B1 | 19.1 µg/mL
B2 | > 10 µg/mL
B3 | 2.17 µg/mL
B4 | 0.846 µg/mL
B5 | 5.63 µg/mL
B6 | 17.3 µg/mL
B7 | 6.25 µg/mL
B8 | 0.085 µg/mL
B9 | 0.039 µg/mL
B10 | > 10 µg/mL
B11 | 1.6 µg/mL
B12 | 0.184 µg/mL
B13 | > 10 µg/mL
B14 | 12.8 µg/mL
B15 | 1.45 µg/mL
B16 | 14.2 µg/mL
B17 | > 10 µg/mL

Each binder was assayed against RSV F protein of subtype B strain 18537, on virus (respiratory syncytial virus subtype B …, UniProt P13843 26-574) (assay: cell-based or functional assay).

Binder | Neut IC50 (ug/ml) subtype B
B1 | > 10 µg/mL
B2 | > 10 µg/mL
B3 | 2.42 µg/mL
B4 | > 10 µg/mL
B5 | 22.4 µg/mL
B6 | > 10 µg/mL
B7 | > 10 µg/mL
B8 | 0.088 µg/mL
B9 | 0.048 µg/mL
B10 | > 10 µg/mL
B11 | 3.29 µg/mL
B12 | 0.483 µg/mL
B13 | > 10 µg/mL
B14 | > 10 µg/mL
B15 | 0.377 µg/mL
B16 | > 10 µg/mL
B17 | 4.82 µg/mL
